Experimental data reported in the RNAGym collection of RNA variant scans (doi:10.1073/pnas.2313332121).
Fewer inactive variants are shown than the library holds.

B1: TPR 5TU (parent)
chain: GGAUCUUCUCGAUCUAACAAAAAAGACAAAUCUGCCACAAAGCUUGAGAGCAUCUUCGGAUGCAGAGGCGGCAGCCUUCGGUGGCGCGAUAGCGCCAACGUUCUCAACUAUGACACGCAAAACGCGUGCUCCGUUGAAUGGAGUUUAUCAUG

Variants of: B1
Assay: polymerase ribozyme fitness, log enrichment relative to wild type (log ratio); higher = more active; in vitro selection for triplet polymerase activity
Outline: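 Mutant libraries for each subunit of a heterodimeric triplet polymerase ribozyme were made by PCR and then transcribed. Each library underwent one round of in vitro selection in triplicate: annealing with a biotinylated primer, the partner subunit and triplets, frozen incubation at −7 °C, gel excision of extended constructs, streptavidin-bead capture and RT-PCR. Input and output libraries were Illumina-sequenced, and only genotypes with ≥10 input reads and ≥1 read per output were kept. Fitness is the logarithm, base 2, of genotype enrichment over wild-type enrichment, computed from inverse-variance-weighted replicate averages.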

Going from A12U A97U to A12G C63U, the “polymerase ribozyme fitness (log ratio)” value rises from -0.954 to -0.0387.

Compared with A12G G59C, A12G C85U C118G C125A is lower in “polymerase ribozyme fitness (log ratio)” value: 0.244 for the first, -0.473 for the second.

Going from A12G G92C G133U to U13C U53A A91U A107U, the “polymerase ribozyme fitness (log ratio)” value falls from -3.59 to at most -4.2.

U13C C51G C54G C75U G83U and A12U U13A A52C C87A G94U U134A A138U cannot be ordered by “polymerase ribozyme fitness (log ratio)” value: at most -4.2 for the first, at most -4.2 for the second.

First: A12U U55A G59U A60G G94A
Second: A12G G80C G81C C118U U135A
The “polymerase ribozyme fitness (log ratio)” value of the first is higher: -0.00322 for the first, -1.66 for the second.

First: U13A G25U C85G
Second: A12U C14U G50C A60G G74U C85U
The “polymerase ribozyme fitness (log ratio)” value of the first is higher: -3.79 for the first, at most -4.2 for the second.

First: A12G U77A C96A A98G
Second: A12G U78C U139G
The “polymerase ribozyme fitness (log ratio)” value of the first is lower: at most -4.2 for the first, -1.31 for the second.

A12U G25C A47G U56A C93G C108G and A12U A17U A28C C43G C103G cannot be ordered by “polymerase ribozyme fitness (log ratio)” value: at most -4.2 for the first, at most -4.2 for the second.

Going from U13A A52G G68C G80A U82G C95G C105U C114A U145G to A12U C105G, the “polymerase ribozyme fitness (log ratio)” value rises from at most -4.2 to -2.43.

First: A12U A110G
Second: U13C G58U G94U C95U A142G U144G
The “polymerase ribozyme fitness (log ratio)” value of the first is higher: -3.35 for the first, -4.05 for the second.

Going from A12U C63A U78G C95U to A12U G59A C75G U127G, the “polymerase ribozyme fitness (log ratio)” value rises from at most -4.2 to -4.12.

First: U13A C51U C54A G86U C116U A120G
Second: A12U G48A C96A
The “polymerase ribozyme fitness (log ratio)” value of the first is lower: at most -4.2 for the first, -2.05 for the second.

A12U A28C C57U G68A G92C G126U and U13G A20U C57A C95A C96A U130C cannot be ordered by “polymerase ribozyme fitness (log ratio)” value: at most -4.2 for the first, at most -4.2 for the second.

Compared with A12G U13C C96A, A12U G143U is lower in “polymerase ribozyme fitness (log ratio)” value: -0.909 for the first, -3.14 for the second.

Going from U13A A73G G84A to A12U U31G A40C A49C A60G C93U, the “polymerase ribozyme fitness (log ratio)” value falls from -0.387 to at most -4.2.

A12U G80U G84C A97G U134C and A12U C38G G50A A66C cannot be ordered by “polymerase ribozyme fitness (log ratio)” value: at most -4.2 for the first, at most -4.2 for the second.

Compared with A12U A39U A150C, U13A G50A U55A A89C is higher in “polymerase ribozyme fitness (log ratio)” value: at most -4.2 for the first, -3.57 for the second.

A12U A16G A30U C79G C95A U144A and A12U A16U A17U C27U A47U G48A C76G G86U U145A G152U cannot be ordered by “polymerase ribozyme fitness (log ratio)” value: at most -4.2 for the first, at most -4.2 for the second.

A12G U45G A49U A60G U61G A107U U127G and A12U A21U A39C G92A U109G A137G cannot be ordered by “polymerase ribozyme fitness (log ratio)” value: at most -4.2 for the first, at most -4.2 for the second.

Going from U13A U61A C85U to A12U A49C U53A C85U C118G U151G, the “polymerase ribozyme fitness (log ratio)” value falls from -2.01 to at most -4.2.

First: A12G U77C
Second: U13C G94A G141U
The “polymerase ribozyme fitness (log ratio)” value of the first is lower: -3.98 for the first, 0.369 for the second.

First: A12U U56A A115G
Second: U13A C18U U55A A119G
The “polymerase ribozyme fitness (log ratio)” value of the first is lower: -2.11 for the first, -1.83 for the second.

Compared with U13C A16U, A12U G141C is lower in “polymerase ribozyme fitness (log ratio)” value: -0.079 for the first, -0.54 for the second.

A12U A16C C57G G81A U104G A115G and A12G U13A U31A C57A G65A C85G cannot be ordered by “polymerase ribozyme fitness (log ratio)” value: at most -4.2 for the first, at most -4.2 for the second.

U13A C18G A30G G65U A91G A115C C118U U144G and U13C A30U C36G C51U U55A C87A G126U cannot be ordered by “polymerase ribozyme fitness (log ratio)” value: at most -4.2 for the first, at most -4.2 for the second.

Going from A12G G141C to U13A G48U U56A G84A, the “polymerase ribozyme fitness (log ratio)” value falls from -0.0174 to -1.28.

First: A12G U56A U144A
Second: U13C A52G U102C C118G
The “polymerase ribozyme fitness (log ratio)” value of the first is higher: 0.103 for the first, -3.18 for the second.

Going from A12U A41C G83C C118G G133U to U13A C38U, the “polymerase ribozyme fitness (log ratio)” value rises from at most -4.2 to -0.321.

U13A A22U U53A G62C A64U U90A A91C C103A A106G C108U G126C and A12U U15C A49C G88C C123U G143C cannot be ordered by “polymerase ribozyme fitness (log ratio)” value: at most -4.2 for the first, at most -4.2 for the second.

Going from A12G U61A C76A A106G to A12U G84U, the “polymerase ribozyme fitness (log ratio)” value rises from -3.97 to -1.97.

First: A12U G84C
Second: A12U A22G A29C G42U C87U C93A
The “polymerase ribozyme fitness (log ratio)” value of the first is higher: -2.67 for the first, at most -4.2 for the second.

A12U C27U A73U C96G A97U A107G and A12U G81C G84A A115U cannot be ordered by “polymerase ribozyme fitness (log ratio)” value: at most -4.2 for the first, at most -4.2 for the second.

Going from U13A U33A A52U A89G to U13C C93U U134A, the “polymerase ribozyme fitness (log ratio)” value rises from at most -4.2 to -3.08.

A12G C96A U134C A138G G141C and U13C U61G G84A A91G are within 0.2 log units of each other in “polymerase ribozyme fitness (log ratio)” value: -3.97 for the first, -3.86 for the second.

Compared with U13C C38U G86A G124C, U13C A21C A23C G92U A142G A147U is lower in “polymerase ribozyme fitness (log ratio)” value: -1.98 for the first, at most -4.2 for the second.

U13A G34U A49C G140A A142U and U13C C35A A91U C95A U104C C131G cannot be ordered by “polymerase ribozyme fitness (log ratio)” value: at most -4.2 for the first, at most -4.2 for the second.

First: A12G U45A A52U U55A C79G G81A A98G
Second: A12U C36G G86A A110C U139A
The “polymerase ribozyme fitness (log ratio)” value of the first is lower: at most -4.2 for the first, -4.11 for the second.

Compared with U13G A21U A22C U82G G92U A98C C116U, U13C U44A U55A G59U G84A A150C is lower in “polymerase ribozyme fitness (log ratio)” value: -1.59 for the first, at most -4.2 for the second.

U13A C14G A19U U53A U55A G86C U135A and A12U G92A A98G C125G G128U cannot be ordered by “polymerase ribozyme fitness (log ratio)” value: at most -4.2 for the first, at most -4.2 for the second.

U13C A49C A52U G71A A113U and U13A G46U G59A A91G C95U G117A cannot be ordered by “polymerase ribozyme fitness (log ratio)” value: at most -4.2 for the first, at most -4.2 for the second.

Compared with A12U C18G G92C, U13A C85U A107U C125A G126C is lower in “polymerase ribozyme fitness (log ratio)” value: -2.01 for the first, at most -4.2 for the second.

For A12U C54U G86C, the “polymerase ribozyme fitness (log ratio)” value was -3.04.
